Measurements published in PMC9418424.

Target: (AcA4)2KD amphiphilic peptide ((Ac-Ala-Ala-Ala-Ala)2-Lys-Asp-OH)
Experiment: dynamic light scattering

## (AcA4)2KD amphiphilic peptide ((Ac-Ala-Ala-Ala-Ala)2-Lys-Asp-OH)
  critical aggregation concentration: 0.8 mM
